From patent US11414646 (QURATIS, dated 2022) come the findings set out here.

The target of the assay is T1, Toll-like receptor 4 (TLR4) of mouse bone marrow-derived dendritic cells (mouse, UniProt Q9QUK6 26-835).
T1 construct: whole, on cells; also called TLR (toll-like receptor)-4
T1 sequence: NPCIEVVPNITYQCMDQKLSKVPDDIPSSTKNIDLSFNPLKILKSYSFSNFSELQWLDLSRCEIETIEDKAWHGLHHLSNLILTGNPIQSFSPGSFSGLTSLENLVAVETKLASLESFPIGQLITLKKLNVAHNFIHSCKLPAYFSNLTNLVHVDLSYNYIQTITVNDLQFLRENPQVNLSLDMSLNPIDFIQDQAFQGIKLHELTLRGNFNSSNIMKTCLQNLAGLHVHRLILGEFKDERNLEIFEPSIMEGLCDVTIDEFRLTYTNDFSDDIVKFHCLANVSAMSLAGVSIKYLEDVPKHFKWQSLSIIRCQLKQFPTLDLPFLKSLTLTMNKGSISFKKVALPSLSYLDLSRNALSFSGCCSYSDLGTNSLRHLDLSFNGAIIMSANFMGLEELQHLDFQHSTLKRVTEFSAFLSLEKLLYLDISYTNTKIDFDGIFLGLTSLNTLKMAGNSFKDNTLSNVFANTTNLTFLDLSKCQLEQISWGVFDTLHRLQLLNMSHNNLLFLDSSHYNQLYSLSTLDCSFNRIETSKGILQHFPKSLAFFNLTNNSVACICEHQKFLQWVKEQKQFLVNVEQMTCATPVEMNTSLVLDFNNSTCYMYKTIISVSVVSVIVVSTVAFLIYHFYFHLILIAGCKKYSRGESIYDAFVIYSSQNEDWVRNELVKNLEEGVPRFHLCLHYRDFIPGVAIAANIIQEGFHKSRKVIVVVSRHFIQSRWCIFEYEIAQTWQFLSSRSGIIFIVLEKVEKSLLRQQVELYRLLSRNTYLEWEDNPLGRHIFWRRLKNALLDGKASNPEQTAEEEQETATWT
Nature of the assay: figure legend for FIGS. 3D-3F: confocal microscopy, FACS and immunoprecipitation.

B1: Recombinant Rv2299c protein (His-tagged, Mycobacterium tuberculosis H37Rv, expressed in E. coli BL21) (ligand)
chain: MNAHVEQLEFQAEARQLLDLMVHSVYSNKDAFLRELISNASDALDKLRIEALRNKDLEVDTSDLHIEIDADKAARTLTVRDNGIGMAREEVVDLIGTLAKSGTAELRAQLREAKNAAASEELIGQFGIGFYSSFMVADKVQLLTRKAGESAATRWESSGEGTYTIESVEDAPQGTSVTLHLKPEDAEDDLHDYTSEWKIRNLVKKYSDFIAWPIRMDVERRTPASQEEGGEGGEETVTIETETLNSMKALWARPKEEVSEQEYKEFYKHVAHAWDDPLEIIAMKAEGTFEYQALLFIPSHAPFDLFDRDAHVGIQLYVKRVFIMGDCDQLMPEYLRFVKGVVDAQDMSLNVSREILQQDRQIKAIRRRLTKKVLSTIKDVQSSRPEDYRTFWTQFGRVLKEGLLSDIDNRETLLGISSFVSTYSEEEPTTLAEYVERMKDGQQQIFYATGETRQQLLKSPHLEAFKAKGYEVLLLTDPVDEVWVGMVPEFDGKPLQSVAKGEVDLSSEEDTSEAEREERQKEFADLLTWLQETLSDHVKEVRLSTRLTESPACLITDAFGMTPALARIYRASGQEVPVGKRILELNPSHPLVTGLRQAHQDRADDAEKSLAETAELLYGTALLAEGGALEDPARFAELLAERLARTL
notes: also called Rv2299c (His); HSP90 family protein
As for B1, the binding result is “binds”.
